Patent US12709641B2

Target: iPHF (Homo sapiens (Human)), P10636
Test: Octet, antibody on biosensor tips
Conditions: remark: other sources report otherwise

Kd	Binder
5.5 nM	V00016 (antibody, V domains shown) VH: EVQLQQSGAELVKPGASVKLSCTASGFNIKDYYIHWVKQRTEQGLEWIGRIDPEDGETKYAPKFQGKATIAADTSSNTAYLHLNSLTSEDTAVYYCAREFSYAMDYWGQGTSVTVSS VL: NIMMTQSPSSLAVSAGEKVTMSCKSSQSVLYSSNQKNYLAWYQQKPGQSPKLLIYWASTRESGVPDRFTGSGSGTDFTLTISSVQAEDLAVYYCHQYLSSRTFGGGTKLEIK
2.8 nM	V0024 (antibody, V domains shown, here or on the partner: phosphorylated residues of pathological tau, sites not stated) VH: QVQLQQPGTELVKPGASVKLSCKASGYTFTRFWMHWVKQRPGQGLEWIGNINPNNGGTDNNERFKSKATLTVDRSSSTAYMQLSSLTSEDSAVYYCARGTGTGAMDYWGQGTSVTVSS VL: DVVMTQTPLSLPVSLGDQASISCRSSQSLVHSNGNTHLYWYLQKPGQSPKLLIYRVSSRFSGVPDRFSGSGSGTDFTLKISRVEAEDLGVYFCFQGTHVPRTFGGGTKLEIK

Target: wild type tau (Homo sapiens (Human)), P10636
Test: Octet
Conditions: remark: other sources report otherwise

Binder	Kd
V0026 (antibody, V domains shown) VH: QVQLQQSGPELVKPGASVKISCKASGYSFTDYYINWVKQRPGQGLEWIGWIFPGSDSTYYNEKFKGKATLTVDKSSSTASMLLSSLTSEDSAVYFCARPTVVARDYAMDYWGQGTSVTVSS VL: DVLMTQTPLSLPVSLGDQASISCRSSQSIVYSNGNTYLEWYLQKPGQSPKLLIYKVSNRFSGVPDRFSGSGSGTDFTLKISRVEAEDLGVYYCFQGSHVPYTFGGGTKLEIK	> 200 nM
V0023 (antibody, V domains shown) VH: QVQLQQPGTELVKPGASVKLSCKASGYTFTIFWMHWVKQRPGHGLEWIGKINPNNGGGDYNEKFKSKATLTVDKSSTTAYLQLSSLTSEDSAVYYCARGTGTGAMDYWGQGTSVTVSS VL: DVVMTQTPLSLPVSLGDHASISCRSSQSLVHSNGITHLYWYLQRPGQTPKLLIYRVSNRFSGVPDRFSGSGSGTDFTLKISSVEAEDLGVYFCFQGTHVPRTFGGGTKLEIE	> 200 nM
V0022 (antibody, V domains shown) VH: QVQLQQPGTELVKPGSSVNLSCKASGFTFTRYWMHWVKERPGHGLEWIGNINPNNGGTDFNEKFKNKATLTVHKSSTTVFIQLSSLTSEDSAVYYCARGTGTGAMDYWGQGTSVTVSS VL: DVVMTQTPLSLPVSLGDQASISCRSSQSLVHNNGITYLYWYLQKPGQSPKLLIYRVSNRFSGVPDRFGGSGSGTDFTLKISRVEAEDLGVYFCFQGTHVPRTFGGGTKLEIK	> 200 nM
V0027 (antibody, V domains shown) VH: QVQLQQSGPELVKPGASVKISCKASGYTFTEYYLNWMKQRPGQGLEWIGWIFPGRGSTNYNEKFKGKATLTVDKSSSTAYMLLSSLTSEDSAVYFCARPTIVARDYAMDYWGQGTSVTVSS VL: DVLMTQTPLSLPVSLGDQASISCRSSQSIVHRNGNTYLEWYLQKPGQSPKLLIYKVSNRFSGVPDRFSGSGSGTDFTLKISRVEAEDLGVYYCFQGSHVPFTFGSGTKLEIK	> 200 nM
V0031 (antibody, V domains shown) VH: QVQLQQPGTELVKPGASVKLSCKASGYTFTSYWMHWVKQRPGQGLEWIGNIYPSNGGTYYNEKFKSKATLTVDKSSSTAYMQLSSLTSEDSAVYYCARSSVVGRDYAMDYWGQGTSVTVSS VL: DVLMTQTPLSLPVSLGDQASIACRSSQSIVHSNGNTYLEWYLQKPGQSPELLIYKVSNRFSGVPDRFSGSGSGTDFTLKISRVEAEDLGVYYCFQGSHVPYTFGGGTKLEIK	> 200 nM
V0032 (antibody, V domains shown) VH: QVQLKQSGAELVRPGASVKLSCKTSGYTFTDYYIKWVKQRPGQGLEWIARIYPGSGNTYYNEKFKGKATLTAEKSSSTAYMQLSSLTSEDSAVYFCARPAYYSKDYAMEYWGQGTSVTVSS VL: DVLMTQTPLSLPVSLGDQASISCRSSQSIVYTNGNTYLEWYLQKPGQSPKLLIYKVSNRFSGVPDRFSGSGSGTDFTLKISRVEAEDLGVYYCFQGSHVPYTFGGGTKLEIK	> 200 nM

The next lines start with the values.

Kd	Binder
> 200 nM	V0058 (antibody, V domains shown) VH: not shown VL: DIVMTQSPSSLSVSAGEKVTMSCKSSQSLLSSGNQKNYLAWYQQKPGQPPKLLIYGASTRESGVPDRFTGSGSGTDFTLTISSVQAEDLAVYYCQNDHSHPYTFGGGTKLEIK
> 200 nM	V0057 (antibody, V domains shown) VH: not shown VL: DIVMTQSPSSLSVSAGEKVTMSCKSSQSLLNSGNQKNYLAWYQQKPGQPPKLLIYGASTRESGVPDRFTGSGSGTDFTLTISSVQAEDLAVYYCQNDHSHPYTFGGGTKLEIK
> 200 nM	V0054 (antibody, V domains shown) VH: not shown VL: DIVMTQSPSSLSVSAGEKVTMSCKSSQSLLNSGNQKNYLAWYQQKPGQPPKLLIYGTSTRESGVPDRFTGSGSGTDFTLTISSVQAEDLAVYYCQNDHSHPYTFGGGTKLEIK
> 200 nM	V0055 (antibody, V domains shown) VH: not shown VL: DIVMTQSPSSLSVSAGEKVTMSCKSSQSLLNSGNQKNYLAWYQQKPGQPPKLLIYGASTRESGVPDRFTGSGSGTDFTLTISSVQAEDLAVYYCQNDHSHPYTFGGGTKLEIK
> 200 nM	V0021 (antibody, V domains shown) VH: QVQLQQPGIELVKTGASVKLSCKASGYTFTSNWMHWLKQRPGQGLEWIGNINPNNSETNYNEKFRKKATLTVDKSSSAAYMQLISLTSEDSAVYYCARANYYGGSQFAYWGQGTLVTVSA VL: DVVMTQTPLSLCVSLGDQASISCRSSQSLVHSNGKTYLHWYLQKPGQSPNLLIYKVSNRFSGVPDRFSGSGSGTDFTLKISRVEAEDLGVYFCSQSTHVPFTFGSGTKLEIK
> 200 nM	V0020 (antibody, V domains shown) VH: QVQLQQPGTDLVKPGASVKLSCKASGYTFTSYWMHWLKQRPGQGLEWIGNINPNNSDANYNEKFKSKATLTVDKSSSAAYMQLISLTSEDSAVYYCARANYYGGSQFAYWGQGTLVTVSA VL: DVVVTQTPLSLPVSLGDQASISCRSSQSLVHSNGKTYLHWYLQKPGQSPNLLIYKVSNRFSGVPDRFSGSGSGTDFTLKISRVEAEDLGVYFCSQSTHVPFTFGSGTKLEIK
> 200 nM	V0050 (antibody, V domains shown) VH: EVQLQQSGPELVKPGASVKIPCRASGYTFTDYNMDWVKQSHGKTLEWIGDINPNNGGTIYNQKFKGKATLTVDKSSSTAYMELRSLTSEDTAVYYCARGRGMGYYALDYWGQGTSVTVSS VL: DIQMTQSPASLSASVGETVTFTCGASENVYGALNWYQRKQGKSPQLLIYGATNLADGMSSRFSGSGSGRQYSLKISSLHPDDVATYYCQNVLTIPWTFGGGAKLEIK
> 200 nM	V0052 (antibody, V domains shown) VH: not shown VL: SIVMTQTPKFLLVSAGDRVTITCKASQSVSNDVAWYQQKPGQSPKLLIYYASNRCTGVPDRFTGSGYGTDFTFTISTVQAEDLAVYFCQQDYRSPLTFGAGTKLELK
> 200 nM	V0004 (antibody, V domains shown) VH: QVQLQQPGAELVKPGASVKLSCKASDYTFTNYWMHWVKQRPGRGLEWIGRIDPNSGGTRYNEKFKNKATLTVDKPSSTAYMHLSSLTSEDSAVYYCAGDFDVWGTGTTVTVSS VL: DIQMTQSPASLSASVGETVTITCRASGNIHNYLAWYQQRQGKSPQLLVYNAKTLPDGVPSRFSGSGSGTQYSLKINSLQPEDFGSYCCQHFWSTPLTFGAGTKLELK
> 200 nM	V0024 (antibody, V domains shown, here or on the partner: phosphorylated residues of pathological tau, sites not stated) VH: QVQLQQPGTELVKPGASVKLSCKASGYTFTRFWMHWVKQRPGQGLEWIGNINPNNGGTDNNERFKSKATLTVDRSSSTAYMQLSSLTSEDSAVYYCARGTGTGAMDYWGQGTSVTVSS VL: DVVMTQTPLSLPVSLGDQASISCRSSQSLVHSNGNTHLYWYLQKPGQSPKLLIYRVSSRFSGVPDRFSGSGSGTDFTLKISRVEAEDLGVYFCFQGTHVPRTFGGGTKLEIK

Target: T1, enriched paired helical filament tau protein (ePHF) (human)
Test: follow up analysis, method not stated
Conditions: remark: other sources report otherwise

selectivity for ePHF over wild type tau	Binder
> 100 fold	V0024 (antibody, V domains shown, here or on the partner: phosphorylated residues of pathological tau, sites not stated) VH: QVQLQQPGTELVKPGASVKLSCKASGYTFTRFWMHWVKQRPGQGLEWIGNINPNNGGTDNNERFKSKATLTVDRSSSTAYMQLSSLTSEDSAVYYCARGTGTGAMDYWGQGTSVTVSS VL: DVVMTQTPLSLPVSLGDQASISCRSSQSLVHSNGNTHLYWYLQKPGQSPKLLIYRVSSRFSGVPDRFSGSGSGTDFTLKISRVEAEDLGVYFCFQGTHVPRTFGGGTKLEIK

Target: T1, enriched paired helical filament tau …
Test: direct ELISA
Conditions: remark: other sources report otherwise

EC50	Binder
0.125 nM	V0024 (antibody, V domains shown, here or on the partner: phosphorylated residues of pathological tau, sites not stated) VH: QVQLQQPGTELVKPGASVKLSCKASGYTFTRFWMHWVKQRPGQGLEWIGNINPNNGGTDNNERFKSKATLTVDRSSSTAYMQLSSLTSEDSAVYYCARGTGTGAMDYWGQGTSVTVSS VL: DVVMTQTPLSLPVSLGDQASISCRSSQSLVHSNGNTHLYWYLQKPGQSPKLLIYRVSSRFSGVPDRFSGSGSGTDFTLKISRVEAEDLGVYFCFQGTHVPRTFGGGTKLEIK
